We go through five molecules from patent publication US20200392227A1 (LYVGEN BIOPHARMA, published 2020).

Experiment [1] concerns the target T1, human FcRIIIA-V158 protein (MednaBio, E1035) (human, UniProt P08637 17-208).
T1 construct: Bought; also called FcγRIIIA(V); FcgRIIIA(V)
The experiment can be described thus: BLI. The procedure, abridged:
(§1)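 Binding was measured by biolayer interferometry on an Octet Red96 System, with commercial human Fc receptor proteins loaded at 20 μg/mL onto anti-penta-HIS biosensors. Sensors were dipped into an 8-point 1:3 dilution series of test IgG starting at 300 nM in PBS with 0.1% BSA and 0.02% Tween-20. Fcγ receptor assays ran at pH 7.2 and FcRn assays at pH 6. Kd, kon and koff came from global fitting to a 1:1 binding model.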
Background: BLI is a label-free optical method that tracks binding on a fibre tip over time.

Experiment [2] concerns the target T2, human FcRI protein (MednaBio, E1031) (human, UniProt P12314 16-288, limits assumed).
T2 construct: Bought; loaded on anti-penta-HIS biosensors; also called FcγRI
The experiment can be described thus: BLI. The procedure, abridged: as §1

The target in experiment [3] is T3, human FcRIIA protein (MednaBio, E1033) (human, UniProt P12318 34-218, limits assumed).
T3 construct: Bought; also called FcγRIIA
T3 sequence (looked up): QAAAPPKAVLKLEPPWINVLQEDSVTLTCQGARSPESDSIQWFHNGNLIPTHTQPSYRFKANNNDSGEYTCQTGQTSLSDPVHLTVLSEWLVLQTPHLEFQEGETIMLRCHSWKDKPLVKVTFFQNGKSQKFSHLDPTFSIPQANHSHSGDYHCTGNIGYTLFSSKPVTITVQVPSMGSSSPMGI
Kind of experiment: BLI. The method in brief: as §1

Experiment [4] concerns the target T4, human FcRn protein (MednaBio, E1032) (human, UniProt P55899 24-297; P61769 21-119).
T4 construct: Bought; assays at pH 6
The experiment can be described thus: BLI. The procedure, abridged:
as §1

For experiment [5], the target named is T5, human FcRIIIA-F158 protein (MednaBio, E1036) (human, UniProt P08637 17-208).
T5 construct: Bought; also called FcγRIIIA(F)
The experiment can be described thus: BLI. The method in brief:
as §1

The target in experiment [6] is T6, human FcRIIIB protein (MednaBio, E1037) (human, UniProt O75015 17-200).
T6 construct: Bought; also called FcγRIIIB; FcgRIIIB
Kind of experiment: BLI. The method in brief:
as §1

Experiment [7] addresses T7, human FcRIIB/C protein (MednaBio, E1034) (human, UniProt P31994 43-217, limits assumed).
T7 construct: Bought as FcRIIB/C; also called FcγRIIB; CD32B
T7 sequence (looked up): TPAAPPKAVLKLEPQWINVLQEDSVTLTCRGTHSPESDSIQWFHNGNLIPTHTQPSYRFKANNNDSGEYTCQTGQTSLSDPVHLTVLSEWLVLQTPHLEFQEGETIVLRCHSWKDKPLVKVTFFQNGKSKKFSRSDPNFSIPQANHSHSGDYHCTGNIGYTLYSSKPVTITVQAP
The experiment can be described thus: BLI. The procedure, abridged: as §1

Experiment [8] addresses T8, human FcγRIIC expressed on CHO cells (human, UniProt P31995 43-323).
T8 construct: whole, on cells
T8 sequence (looked up): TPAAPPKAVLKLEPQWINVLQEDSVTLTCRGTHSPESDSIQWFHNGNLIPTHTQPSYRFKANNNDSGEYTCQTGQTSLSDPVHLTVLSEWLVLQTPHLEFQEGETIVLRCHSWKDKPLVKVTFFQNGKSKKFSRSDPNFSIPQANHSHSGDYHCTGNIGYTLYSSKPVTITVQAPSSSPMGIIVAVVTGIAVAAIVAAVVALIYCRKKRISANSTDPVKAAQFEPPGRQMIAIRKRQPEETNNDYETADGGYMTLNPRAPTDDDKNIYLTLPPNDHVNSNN
Kind of experiment: FACS, CHO cells expressing FcγRIIC. As to the method:
FIGS. 1A-1W are charts showing binding activity of various IgG variants as indicated to different types of Fcγ receptors expressed on CHO-K1 cells at the various concentrations as indicated. The concentrations of each IgG variant, from left to right, are 0 μg/ml, 0.3 μg/ml, 1 μg/ml, 3 μg/ml, and 10 μg/ml in FIGS. 1A-1C, 1E-J, 1L-1M, 1P-1R, and 1T-1V. For FIGS. 1D, 1K, 10, 1S, and 1w the bars, from left to right, correspond to the following concentrations of IgG variant: 0.3 μg/ml, 1 μg/ml, 3 μg/ml, and 10 μg/ml.
For FACS analysis of the IgG mutants' binding to different FcγRs, FcγR overexpressing CHO cells were harvested using trypsin-EDTA and were suspended in cold staining buffer (3% BSA in PBS). Test IgG mutants, which were diluted in staining buffer, were added into the cells. The mixture was incubated 4° C. for 2 hours, and then washed twice with cold staining buffer and re-suspended in PE-labeled anti-human IgG followed by incubation at 4° C. for 2 hours. The mixture was washed twice with staining buffer and re-suspended in 2% PFA in PBS for FACS.
Background: Flow cytometry measures light scatter and fluorescence of single cells or particles in a stream.

The target of experiment [9] is T1, human FcRIIIA-V158 protein (MednaBio, …). The experiment can be described thus: BLI. The method in brief:
as §1
The source holds these as a separate data set.

For experiment [10], the target named is T2, human FcRI protein (MednaBio, E1031). The experiment can be described thus: BLI. The procedure, abridged: as §1
This is another data set of the same source.

Experiment [11] concerns the target T3, human FcRIIA protein (MednaBio, E1033). Kind of experiment: BLI. The procedure, abridged: as §1
This is another data set of the same source.

Experiment [12] has as its target T4, human FcRn protein (MednaBio, E1032). The experiment can be described thus: BLI. The method in brief:
as §1
The source holds these as a separate data set.

Experiment [13] deals with T5, human FcRIIIA-F158 protein (MednaBio, …). Kind of experiment: BLI. The procedure, abridged: as §1
This is another data set of the same source.

In experiment [14] the target is T6, human FcRIIIB protein (MednaBio, E1037). The experiment can be described thus: BLI. The procedure, abridged: as §1
This is another data set of the same source.

In experiment [15] the target is T7, human FcRIIB/C protein (MednaBio, E1034). Kind of experiment: BLI. The procedure, abridged: as §1
The source holds these as a separate data set.

Residue numbers refer to the chain shown, from its start. Read-outs that look alike come from different tables or passages of the source.

A word on the Kd: it is the equilibrium constant for the complex coming apart. A low value points to a tighter complex. The koff is a measure of how fast the partners let go of each other. Low values mean slow dissociation, high ones fast dissociation. Usually kon stands for the second-order rate constant of association.

T4 sequence (P55899 24-297 limits assumed, form in doubt, chain 1 of 2): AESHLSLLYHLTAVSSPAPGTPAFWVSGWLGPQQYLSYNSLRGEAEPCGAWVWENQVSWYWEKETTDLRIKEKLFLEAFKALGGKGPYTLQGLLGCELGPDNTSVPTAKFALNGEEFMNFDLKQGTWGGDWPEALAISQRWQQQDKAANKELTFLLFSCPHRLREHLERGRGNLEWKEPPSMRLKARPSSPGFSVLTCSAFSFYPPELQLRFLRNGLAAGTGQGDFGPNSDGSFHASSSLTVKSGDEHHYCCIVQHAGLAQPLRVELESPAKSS
T4 sequence (P61769 21-119 limits assumed, form in doubt, chain 2 of 2): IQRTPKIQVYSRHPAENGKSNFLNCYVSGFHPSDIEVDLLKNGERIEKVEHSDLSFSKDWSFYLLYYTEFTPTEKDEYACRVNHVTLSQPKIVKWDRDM
T5 sequence (P08637 17-208 limits assumed): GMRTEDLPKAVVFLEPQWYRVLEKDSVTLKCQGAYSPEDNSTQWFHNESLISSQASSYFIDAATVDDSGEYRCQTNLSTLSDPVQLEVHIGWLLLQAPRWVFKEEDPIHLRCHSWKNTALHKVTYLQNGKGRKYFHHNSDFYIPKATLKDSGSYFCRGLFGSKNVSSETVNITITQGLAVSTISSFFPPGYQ
T2 sequence (P12314 16-288 limits assumed): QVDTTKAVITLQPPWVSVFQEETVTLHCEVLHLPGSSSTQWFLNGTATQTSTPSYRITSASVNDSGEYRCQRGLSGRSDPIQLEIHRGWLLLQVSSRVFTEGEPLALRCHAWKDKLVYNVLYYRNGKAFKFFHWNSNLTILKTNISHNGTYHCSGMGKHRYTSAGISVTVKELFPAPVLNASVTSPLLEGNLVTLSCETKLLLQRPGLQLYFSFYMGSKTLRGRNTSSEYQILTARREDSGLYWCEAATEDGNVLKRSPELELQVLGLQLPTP
T6 sequence (O75015 17-200 limits assumed): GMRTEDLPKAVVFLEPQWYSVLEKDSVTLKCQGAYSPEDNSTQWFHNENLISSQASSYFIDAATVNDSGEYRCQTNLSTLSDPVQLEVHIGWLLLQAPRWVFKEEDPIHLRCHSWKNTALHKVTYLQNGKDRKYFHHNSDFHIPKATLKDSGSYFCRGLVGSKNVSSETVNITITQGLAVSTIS
T1 sequence (P08637 17-208 F176V): as the sequence (P08637 17-208 limits assumed) above, with F160V counted along it

B1: anti-CD137 IgG4 with Fc variant G4m7 (antibody)
heavy: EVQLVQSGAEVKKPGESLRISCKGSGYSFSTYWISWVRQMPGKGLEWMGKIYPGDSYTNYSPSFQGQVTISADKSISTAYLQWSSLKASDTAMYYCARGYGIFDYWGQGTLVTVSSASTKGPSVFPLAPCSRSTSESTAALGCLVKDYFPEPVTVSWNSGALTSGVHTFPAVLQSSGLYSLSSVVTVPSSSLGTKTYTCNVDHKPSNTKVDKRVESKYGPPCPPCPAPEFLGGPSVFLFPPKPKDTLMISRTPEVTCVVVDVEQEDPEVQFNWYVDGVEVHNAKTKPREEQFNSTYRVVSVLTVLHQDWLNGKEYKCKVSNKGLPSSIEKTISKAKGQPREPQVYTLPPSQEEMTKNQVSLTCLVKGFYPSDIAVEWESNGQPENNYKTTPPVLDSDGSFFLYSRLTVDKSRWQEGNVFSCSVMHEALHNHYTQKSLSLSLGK
light: SYELTQPPSVSVSPGQTASITCSGDNIGDQYAHWYQQKPGQSPVLVIYQDKNRPSGIPERFSGSNSGNTATLTISGTQAMDEADYYCATYTGFGSLAVFGGGTKLTVLGQPKAAPSVTLFPPSSEELQANKATLVCLISDFYPGAVTVAWKADSSPVKAGVETTTPSKQSNNKYAASSYLSLTPEQWKSHRSYSCQVTHEGSTVEKTVAPTECS
notes: copies: 2 + 2
On to B1, for which the binding result in experiment [1] is listed as “no binding (tested: 300 nM)”; in experiment [5], “no binding (tested: 300 nM)”; in experiment [6], “no binding (tested: 300 nM)”; in experiment [8], “binds”. Also, the Kd in experiment [2] came out at 2.1 nM; in experiment [3] it was 210 nM; in experiment [4] it was 23 nM; in experiment [7], 45 nM. The koff in [2] worked out at 0.0011 s⁻¹; in experiment [3] it was 0.034 s⁻¹; in [4], 0.012 s⁻¹; in [7], 0.02 s⁻¹. Besides, the kon was 540000 M⁻¹ s⁻¹ in experiment [2], 160000 M⁻¹ s⁻¹ in experiment [3], 520000 M⁻¹ s⁻¹ in experiment [4] and 440000 M⁻¹ s⁻¹ in experiment [7].

B2: anti-CD137 IgG1 with Fc variant G1m15 (antibody)
heavy: EVQLVQSGAEVKKPGESLRISCKGSGYSFSTYWISWVRQMPGKGLEWMGKIYPGDSYTNYSPSFQGQVTISADKSISTAYLQWSSLKASDTAMYYCARGYGIFDYWGQGTLVTVSSASTKGPSVFPLAPSSKSTSGGTAALGCLVKDYFPEPVTVSWNSGALTSGVHTFPAVLQSSGLYSLSSVVTVPSSSLGTQTYICNVNHKPSNTKVDKKVEPKSCDKTHTCPPCPAPELLSVFLFPPKPKDTLMISRTPEVTCVVVDVSHEDPEEKFNWYVDGVEVHNAKTKPREEQYNSTYRVVSVLTVLHQDWLNGKEYKCKVSNKALPAPIEKTISKAKGQPREPQVYTLPPSREEMTKNQVSLTCLVKGFYPSDIAVEWESNGQPENNYKTTPPVLDSDGSFFLYSKLTVDKSRWQQGNVFSCSVMHEALHNHYTQKSLSLSPGK
light: B1 light
notes: copies: 2 + 2
As for B2, the binding result in [9], in experiment [13] and in experiment [14] was “no binding (tested: 300 nM)” in each case. Also, the Kd in [10] is 120 nM; in experiment [11] it was 480 nM; in experiment [12], 21 nM; in experiment [15] it was 700 nM. Further, the koff in experiment [10] was determined as 0.06 s⁻¹; in experiment [11], 0.11 s⁻¹; in [12], 0.013 s⁻¹; in [15] it was 0.38 s⁻¹. Moreover, the on-rate constant (kon) is 500000 M⁻¹ s⁻¹ in experiment [10], 230000 M⁻¹ s⁻¹ in experiment [11], 600000 M⁻¹ s⁻¹ in experiment [12] and 540000 M⁻¹ s⁻¹ in experiment [15].

B3: anti-CD137 IgG1 with Fc variant G1m18 (antibody)
heavy: B2 heavy with E269V, L324F
light: B1 light
notes: copies: 2 + 2
Regarding B3, the binding result in experiment [9], in experiment [13] and in [14] was “no binding (tested: 300 nM)” throughout. In addition, the equilibrium dissociation constant (Kd) in experiment [10] was 260 nM; in experiment [11], 140 nM; in [12], 12.8 nM; in experiment [15] it was 670 nM. The koff in experiment [10] was found to be 0.21 s⁻¹; in experiment [11], 0.029 s⁻¹; in experiment [12], 0.00803 s⁻¹; in experiment [15], 0.39 s⁻¹. Further, the kon in experiment [10] worked out at 830000 M⁻¹ s⁻¹; in [11], 200000 M⁻¹ s⁻¹; in experiment [12], 630000 M⁻¹ s⁻¹; in [15], 580000 M⁻¹ s⁻¹.

B4: anti-CD137 IgG4 with Fc variant G4mPE (antibody)
heavy: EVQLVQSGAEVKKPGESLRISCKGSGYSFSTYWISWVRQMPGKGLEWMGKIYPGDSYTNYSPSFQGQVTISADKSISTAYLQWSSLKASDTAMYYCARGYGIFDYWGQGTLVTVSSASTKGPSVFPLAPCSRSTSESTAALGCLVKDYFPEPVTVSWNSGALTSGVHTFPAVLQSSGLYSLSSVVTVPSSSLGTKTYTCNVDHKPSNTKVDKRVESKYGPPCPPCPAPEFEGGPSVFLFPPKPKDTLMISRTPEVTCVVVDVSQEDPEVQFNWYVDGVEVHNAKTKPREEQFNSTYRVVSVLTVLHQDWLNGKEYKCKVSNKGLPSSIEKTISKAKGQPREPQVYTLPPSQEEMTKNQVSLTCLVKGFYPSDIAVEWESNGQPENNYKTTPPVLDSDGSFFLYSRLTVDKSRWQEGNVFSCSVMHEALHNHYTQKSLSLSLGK
light: B1 light
notes: also called G4PE; copies: 2 + 2
Consider B4, for which the Kd is 202 nM in experiment [1]; 605 nM in [2]; 54.5 nM in experiment [3]; 21.9 nM in experiment [4]; 145 nM in experiment [5]; 132 nM in experiment [6]. The molecule further yielded a dissociation constant (Kd) in experiment [7] of 30.7 nM. Also, the koff amounted to 0.0596 s⁻¹ in experiment [1]; 0.0617 s⁻¹ in experiment [2]; 0.0256 s⁻¹ in experiment [3]; 0.0152 s⁻¹ in experiment [4]; 0.0678 s⁻¹ in [5]; 0.0579 s⁻¹ in experiment [6]. The same molecule yielded a koff in experiment [7] of 0.0123 s⁻¹. The kon in experiment [1] came out at 296000 M⁻¹ s⁻¹; in experiment [2], 102000 M⁻¹ s⁻¹; in [3] it was 469000 M⁻¹ s⁻¹; in [4] it was 698000 M⁻¹ s⁻¹; in [5] it was 468000 M⁻¹ s⁻¹; in [6], 437000 M⁻¹ s⁻¹. For the same molecule, in experiment [7], the kon turned out to be 401000 M⁻¹ s⁻¹.

B5: anti-CD137 IgG1 with Fc variant G1m17 (antibody)
heavy: B2 heavy with S263E, E269V
light: B1 light
notes: copies: 2 + 2
For the molecule B5, the binding result in experiment [9], in [13] and in experiment [14] was “no binding (tested: 300 nM)” throughout. The dissociation constant Kd in experiment [10] was 88 nM; in experiment [11], 250 nM; in [12], 10.7 nM; in experiment [15] it was 180 nM. The koff in [10] worked out at 0.041 s⁻¹; in experiment [11], 0.059 s⁻¹; in [12] it was 0.00764 s⁻¹; in [15] it was 0.043 s⁻¹. Also, the kon in [10] worked out at 460000 M⁻¹ s⁻¹; in experiment [11], 240000 M⁻¹ s⁻¹; in experiment [12], 715000 M⁻¹ s⁻¹; in experiment [15], 240000 M⁻¹ s⁻¹.
